Holding throughout (test): fluorescence polarisation; 37 °C, after the 25 °C reading ramped over 7 min to 37 °C and 2 min incubation; unlabeled Rb^P against 1.5 nM TMR-E2F1^TD or 7.5 nM TMR-E7^LxCxE; 25 mM Tris pH 8.0, 200 mM NaCl, 1 mM DTT, 0.1% Tween-20; apparent Kd
What all share (settings): both partners purified

The target of assay [1] is T1, Rb^P S474N (human, UniProt P06400 380-788, S474N).
T1 construct: also called variant 12
T1 sequence (looked up): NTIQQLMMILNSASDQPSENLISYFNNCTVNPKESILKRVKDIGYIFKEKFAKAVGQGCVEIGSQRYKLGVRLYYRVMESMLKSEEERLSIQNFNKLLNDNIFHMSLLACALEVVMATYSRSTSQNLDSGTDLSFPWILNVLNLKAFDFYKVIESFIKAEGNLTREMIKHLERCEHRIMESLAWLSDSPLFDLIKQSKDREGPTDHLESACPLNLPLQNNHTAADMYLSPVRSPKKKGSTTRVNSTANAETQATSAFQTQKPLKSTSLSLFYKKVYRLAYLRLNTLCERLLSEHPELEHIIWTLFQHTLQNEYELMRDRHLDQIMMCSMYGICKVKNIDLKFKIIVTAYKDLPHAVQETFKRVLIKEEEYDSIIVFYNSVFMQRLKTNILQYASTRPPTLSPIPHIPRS

Assay [2] deals with T2, Rb^P K530I (human, UniProt P06400 380-788, K530I).
T2 construct: also called variant 21
T2 sequence (looked up): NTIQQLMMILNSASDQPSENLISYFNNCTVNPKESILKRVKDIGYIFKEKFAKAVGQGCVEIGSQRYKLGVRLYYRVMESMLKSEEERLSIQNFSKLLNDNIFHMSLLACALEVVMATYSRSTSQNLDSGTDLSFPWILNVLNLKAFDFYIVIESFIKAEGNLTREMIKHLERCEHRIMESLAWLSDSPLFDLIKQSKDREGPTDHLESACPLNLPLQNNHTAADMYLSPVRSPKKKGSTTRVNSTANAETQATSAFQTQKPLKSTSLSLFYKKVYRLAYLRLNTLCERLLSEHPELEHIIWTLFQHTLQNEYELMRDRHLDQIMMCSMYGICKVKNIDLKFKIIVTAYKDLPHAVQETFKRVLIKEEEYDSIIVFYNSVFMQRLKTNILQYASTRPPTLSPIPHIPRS

In assay [3] the target is T3, Rb^P L550I (human, UniProt P06400 380-788, L550I).
T3 construct: also called variant 27
T3 sequence (looked up): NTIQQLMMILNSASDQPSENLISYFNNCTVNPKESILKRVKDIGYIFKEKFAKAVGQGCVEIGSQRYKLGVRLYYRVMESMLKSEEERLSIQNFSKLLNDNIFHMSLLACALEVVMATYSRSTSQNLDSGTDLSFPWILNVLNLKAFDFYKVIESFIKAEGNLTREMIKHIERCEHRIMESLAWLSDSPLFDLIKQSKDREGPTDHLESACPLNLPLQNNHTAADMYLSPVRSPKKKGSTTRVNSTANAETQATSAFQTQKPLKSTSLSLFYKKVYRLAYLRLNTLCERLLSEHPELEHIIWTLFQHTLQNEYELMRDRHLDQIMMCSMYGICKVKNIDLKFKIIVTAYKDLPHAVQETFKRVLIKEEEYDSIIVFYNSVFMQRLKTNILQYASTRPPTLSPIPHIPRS

In assay [4] the target is T4, Rb^P R621S (human, UniProt P06400 380-788, R621S).
T4 construct: also called variant 44
T4 sequence (looked up): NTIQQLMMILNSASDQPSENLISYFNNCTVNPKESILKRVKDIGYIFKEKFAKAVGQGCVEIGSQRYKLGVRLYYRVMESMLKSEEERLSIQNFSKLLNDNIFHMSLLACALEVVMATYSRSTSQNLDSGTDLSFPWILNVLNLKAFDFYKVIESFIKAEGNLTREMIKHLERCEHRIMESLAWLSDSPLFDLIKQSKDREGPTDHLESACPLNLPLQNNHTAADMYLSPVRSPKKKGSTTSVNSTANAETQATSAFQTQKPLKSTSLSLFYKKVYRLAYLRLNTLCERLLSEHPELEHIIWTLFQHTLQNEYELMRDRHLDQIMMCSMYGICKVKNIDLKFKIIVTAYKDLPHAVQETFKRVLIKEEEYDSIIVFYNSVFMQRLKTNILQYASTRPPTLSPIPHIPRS

Assay [5] deals with T5, Rb^P R451C (human, UniProt P06400 380-788, R451C).
T5 construct: also called variant 5
T5 sequence (looked up): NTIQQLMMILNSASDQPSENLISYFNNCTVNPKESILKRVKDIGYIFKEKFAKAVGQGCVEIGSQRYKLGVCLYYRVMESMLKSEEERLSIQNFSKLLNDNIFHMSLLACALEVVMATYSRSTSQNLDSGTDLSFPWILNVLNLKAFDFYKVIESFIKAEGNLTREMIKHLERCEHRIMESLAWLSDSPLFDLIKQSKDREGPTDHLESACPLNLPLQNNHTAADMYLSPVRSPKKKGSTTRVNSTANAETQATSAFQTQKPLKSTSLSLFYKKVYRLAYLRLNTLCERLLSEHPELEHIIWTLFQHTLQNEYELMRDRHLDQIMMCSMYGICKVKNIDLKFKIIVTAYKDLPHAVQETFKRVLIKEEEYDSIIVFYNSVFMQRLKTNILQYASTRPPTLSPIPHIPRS

No end group written: not given here. TMR = tetramethyl rhodamine dye

B1: TMR-E2F1^TD, peptide of the E2F1 transactivation domain (peptide)
peptide: {TMR}-GEGIRDLFDCDFGDLTPLD
notes: also called E2F^TD; source: synthetic peptide, bought: GenScript
Take B1: the Kd stood at 0.026 µM in assay [1]; 1.68 µM in assay [2]; 0.08 µM in assay [3]; 0.038 µM in assay [4]; 0.051 µM in assay [5].

B2: TMR-E7^LxCxE, LxCxE peptide of the E7 oncoprotein from HPV (peptide)
peptide: DLYCYEQLN
modifications: also: TMR label, position not given here
notes: source: synthetic peptide, bought: GenScript
As for B2, the Kd in assay [1] is 0.013 µM; in assay [2] it was 0.02 µM; in assay [3], 0.007 µM; in assay [4], 0.017 µM; in assay [5], 0.019 µM.

The values are drawn from article PMC11931385, “Structural and functional analysis of cancer-associated missense variants in the retinoblastoma protein pocket domain” (The Journal of Biological Chemistry, 2025).
